In PMC6517241 (Chembiochem : a European journal of chemical biology, 2019):

Experiments:
[1] = tested on: SH-SY5Y human neuroblastoma cells; assay: Flow cytometry quantitation of cellular uptake, SH-SY5Y; format: cell-based
Cellular toxicity = format: cell-based; details: Figure S6
[2] = ref 5b; cited from earlier work

Substance | Potency of L- and D-enantiomers as pore-forming antibacterial peptides [2] | other results
L-Aβ42-TAMRA: L-Aβ42 N-terminally labeled with 5(6)-Carboxytetramethylrhodamine (TAMRA) | – | Cell fluorescence after incubation at 4 °C (membrane binding) ([1]; SH-SY5Y, 2 h, 4 °C, flow cytometry (Figure S12)): low fluorescence; Influence of N-terminal TAMRA modification on cellular toxicity (Cellular toxicity): not influence cellular toxicity to any significant degree
L-Aβ42: natural L-stereoisomer of the 42 amino acid isoform of Amyloid β | – | Fraction taken up through chirality-dependent mechanisms (class I) ([1]; interpretation of the ~5:1 ratio): approximately 80%
cecropin | equally potent | –
magainin | equally potent | –
melittin | equally potent | –
